Measurements reported in the supplement of paper PMC7877785.
± gives the uncertainty stated by the source.

Test: self-splicing fitness, log relative to wild type (ln ratio); higher = more splicing; Tetrahymena group I intron in knt gene, E. coli kanamycin selection, DiMSum; sequences stand for … in CUCUCU…GGAGGGAAAAGUUAUCAGGCAUGCACCUGGUAGCUAGUCUUUAAACCAAUAGAUUGCAUCGGUUUAAAAGGCAAGACCGUCAAAUUGCGGGAAAGGGGUCAACAGCCGUUCAGUACCAAGUCUCAGGGGAAACUUUGAGAUGGCCUUGCAAAGGGUAUGGUAAUAAGCUGACGGACAUGGUCCUAACCACGCAGCCAAGUCCUAAGUCAACAGAUCUUCUGUUGAUAUGGAUGCAGUUCACAGACUAAAUGUCGGUCGGGGAAGAUGUAUUCUUCUCAUAAGAUAUAGUCGGACCUCUCCUUAAUGGGAGCUAGCGGAUGAAGUGAUGCAACACUGGAGCCGCUGGGAACUAAUUUGUAUGCGAAAGUAUAUUGAUUAGUUUUGGAGUACUCGUGGUCG
Method in brief: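 Library with all eight P1ex-region intron nucleotides randomised, intron inside the knt kanamycin-resistance gene on pET-22b(+), in E. coli BL21(DE3). Cells grew overnight at 37°C or 30°C on LB agar with or without 25 μg/mL kanamycin (plus 100 μg/mL carbenicillin, 50 μM IPTG, 0.2% rhamnose), in six replicate transformations. Pooled colonies were amplicon-sequenced on Illumina HiSeq 2500. DiMSum fitness is the error-weighted combination of wild-type-normalised replicate fold changes, kanamycin versus none.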

Row | Sequence | self-splicing fitness (ln) (37 °C) | self-splicing fitness (ln) (30 °C)
1 | UGGGAGCAAUAUUACGCUCC | -2.7 ± 0.44 | –
2 | UGGGAGCAAUAUUACGCUGU | -1.2 ± 0.41 | –
3 | UGGGAGCAAUAUUACGGCAA | -0.863 ± 0.32 | -2.97 ± 0.47
4 | UGGGAGCAAUAUUACGGGAG | -2.94 ± 0.43 | -2.83 ± 0.25
5 | UGGGAGCAAUAUUACGGGGC | -2.07 ± 0.34 | -2.62 ± 0.48
6 | UGGGAGCAAUAUUACGGUAA | – | -2.32 ± 0.45
7 | UGGGAGCAAUAUUACGGUCA | -0.291 ± 0.14 | -0.375 ± 0.12
8 | UGGGAGCAAUAUUACGGUUC | -0.762 ± 0.44 | –
9 | UGGGAGCAAUAUUACGUGAC | -2.53 ± 0.44 | –
10 | UGGGAGCAAUAUUACGUUAU | -1.86 ± 0.34 | -3.22 ± 0.27
11 | UGGGAGCAAUAUUACGUUGG | -2.85 ± 0.26 | -3.45 ± 0.22
12 | UGGGAGCAAUAUUACGUUUU | -2.51 ± 0.33 | -4.43 ± 0.4
13 | UGGUAGCAAUAUUACGAAAU | -3.17 ± 0.31 | -2.72 ± 0.28
14 | UGGUAGCAAUAUUACGAAUG | -1.02 ± 0.12 | -1.95 ± 0.12
15 | UGGUAGCAAUAUUACGAGUC | -2.29 ± 0.32 | –
16 | UGGUAGCAAUAUUACGAGUU | -2.75 ± 0.24 | -2.91 ± 0.24
17 | UGGUAGCAAUAUUACGAUAG | -0.14 ± 0.14 | -1.94 ± 0.2
18 | UGGUAGCAAUAUUACGCAAA | -1.59 ± 0.17 | -2.06 ± 0.29
19 | UGGUAGCAAUAUUACGCAGU | -2.76 ± 0.4 | -3.14 ± 0.4
20 | UGGUAGCAAUAUUACGCAUG | 0.872 ± 0.14 | -1.33 ± 0.1
21 | UGGUAGCAAUAUUACGCAUU | -1.66 ± 0.19 | -1.88 ± 0.15
22 | UGGUAGCAAUAUUACGCGCC | -2.02 ± 0.42 | -1.45 ± 0.3
23 | UGGUAGCAAUAUUACGCGGA | -0.911 ± 0.17 | -1.86 ± 0.15
24 | UGGUAGCAAUAUUACGCUAA | -0.667 ± 0.16 | -1.37 ± 0.14
25 | UGGUAGCAAUAUUACGGAUC | -1.65 ± 0.32 | -2.25 ± 0.23

Row | Sequence | self-splicing fitness (ln) (37 °C) | self-splicing fitness (ln) (30 °C)
26 | UGGUAGCAAUAUUACGGCAC | -1.39 ± 0.44 | –
27 | UGGUAGCAAUAUUACGGCUC | -0.984 ± 0.14 | -0.912 ± 0.12
28 | UGGUAGCAAUAUUACGGGUG | -0.609 ± 0.08 | -1.26 ± 0.1
29 | UGGUAGCAAUAUUACGGUCC | -1.24 ± 0.33 | -2.05 ± 0.29
30 | UGGUAGCAAUAUUACGGUCG | -0.0256 ± 0.16 | -0.382 ± 0.12
31 | UGGUAGCAAUAUUACGUAGU | -1.04 ± 0.18 | -3.23 ± 0.22
32 | UGGUAGCAAUAUUACGUGCA | -1.27 ± 0.1 | -0.653 ± 0.11
33 | UGGUAGCAAUAUUACGUGGC | -3.04 ± 0.34 | -3.64 ± 0.32
34 | UGGUAGCAAUAUUACGUGUA | -0.721 ± 0.1 | -2.09 ± 0.13
35 | UGGUAGCAAUAUUACGUUAU | -3.33 ± 0.31 | -3.29 ± 0.28
36 | UGGUAGCAAUAUUACGUUCU | -0.725 ± 0.14 | -1.48 ± 0.12
37 | UGUAAGCAAUAUUACGAAAA | -1.15 ± 0.16 | -1.7 ± 0.15
38 | UGUAAGCAAUAUUACGAAAU | -0.0192 ± 0.17 | -2.47 ± 0.18
39 | UGUAAGCAAUAUUACGAAGU | -2.46 ± 0.35 | -3.23 ± 0.47
40 | UGUAAGCAAUAUUACGACCG | 0.133 ± 0.18 | 0.431 ± 0.12
41 | UGUAAGCAAUAUUACGCACG | -0.234 ± 0.11 | -0.966 ± 0.092
42 | UGUAAGCAAUAUUACGCAGU | -2.22 ± 0.24 | -2.92 ± 0.22
43 | UGUAAGCAAUAUUACGCAUU | -2.08 ± 0.24 | -3.58 ± 0.28
44 | UGUAAGCAAUAUUACGCCAA | -1.34 ± 0.2 | -2.77 ± 0.26
45 | UGUAAGCAAUAUUACGCCAG | -1.07 ± 0.33 | -1.82 ± 0.34
46 | UGUAAGCAAUAUUACGCCUG | -0.11 ± 0.1 | 0.084 ± 0.088
47 | UGUAAGCAAUAUUACGCGAU | -1.25 ± 0.21 | -3.35 ± 0.29
48 | UGUAAGCAAUAUUACGCUCA | 0.681 ± 0.18 | -0.207 ± 0.11
49 | UGUAAGCAAUAUUACGCUGG | -1.85 ± 0.19 | -1.24 ± 0.15
50 | UGUAAGCAAUAUUACGGAGC | – | -2.11 ± 0.33
